Drawing on patent US20240141045A1, this text covers Kd for one molecule.

This assay deals with PD-1 Fc fusion protein (UniProt Q15116). The assay can be described thus: SPR (Biacore 3000), recombinant PD-1 Fc immobilised on CM5 chip, fusion protein injected. On the technique in general: SPR reads the build-up and loss of mass on a sensor chip optically.
PD-1 Fc fusion protein, sequence (Q15116 25-167 limits assumed): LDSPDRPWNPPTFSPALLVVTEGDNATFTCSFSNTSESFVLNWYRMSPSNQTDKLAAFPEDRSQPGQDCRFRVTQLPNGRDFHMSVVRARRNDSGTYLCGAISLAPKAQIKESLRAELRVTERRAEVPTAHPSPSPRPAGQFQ

B1: Anti-PD1 (VH7-VL6) scFv-Fc-ADA2 (Fc fusion, part only; not given: scFv linker and Fc, not shown: a dimerising Fc or GST)
scFv (part 1 of 2), part: QVQLVQSGVEVKKPGASVKVSCKASGYTFTNYYMYWVRQAPGQGLEWMGGINPSNGGTNFNEKFKNRVTLTTDSSTTTAYMELKSLQFDDTAVYYCARRDYRFDMGFDYWGQGTTVTVSSEIVLTQSPATLSLSPGERATLSCRASKGVSTSGYSYLHWYQQKPGQAPRLLIYLASYLESGVPARFSGSGSGTDFTLTISSLEPEDFAVYYCQHSRDLPLTFGGGTKVEIK
scFv (part 2 of 2), part: GGGGSGGGGSIDETRAHLLLKEKMMRLGGRLVLNTKEELANERLMTLKIAEMKEAMRTLIFPPSMHFFQAKHLIERSQVFNILRMMPKGAALHLHDIGIVTMDWLVRNVTYRPHCHICFTPRGIMQFRFAHPTPRPSEKCSKWILLEDYRKRVQNVTEFDDSLLRNFTLVTQHPEVIYTNQNVVWSKFETIFFTISGLIHYAPVFRDYVFRSMQEFYEDNVLYMEIRARLLPVYELSGEHHDEEWSVKTYQEVAQKFVETHPEFIGIKIIYSDHRSKDVAVIAESIRMAMGLRIKFPTVVAGFDLVGHEDTGHSLHDYKEALMIPAKDGVKLPYFFHAGETDWQGTSIDRNILDALMLNTTRIGHGFALSKHPAVRTYSWKKDIPIEVCPISNQVLKLVSDLRNHPVATLMATGHPMVISSDDPAMFGAKGLSYDFYEVFMGIGGMKADLRTLKQLAMNSIKYSTLLESEKNTFMEIWKKRWDKFIADVATK
By Kd is commonly meant a measure of binding affinity in units of concentration. Take B1: the dissociation constant Kd turned out to be 0.563 nM.
